Source: PMC6409194 (European journal of pharmacology, 2019)

Biological target: calmodulin (UniProt P0DP23 1-149)
Assay: other fluorescence titration

FKKAFQNVLRIQCLCRKQSSQHAAGYTLH (domain or fragment)
Kd: 3.8 µM
